For 1 substance, percent of the signal in the dimer peak (with 20 mM DPC), percent of the signal in the dimer peak (without DPC) and stoichiometry N results are on record in paper PMC10836841.

The target of the assay is PhiKo endolysin (Thermus thermophilus HB27 bacteriophage phiKo). As to the kind of experiment: AUC; sedimentation velocity, 50,000 rpm, 4°C, 20 mM MES, 150 mM NaCl, pH 6.0, in the absence or presence of 20 mM DPC detergent; PhiKo endolysin 1.2 mg/mL; continuous c(s) distribution (SEDFIT); monomer to dimer.

Usually stoichiometry N stands for a count of units in the complex or per binding partner. Turning to PhiKo endolysin (enzyme), the percent of the signal in the dimer peak (with 20 mM DPC) was 15%, the percent of the signal in the dimer peak (without DPC) came to 2.3% and the stoichiometry N was 2.
